B1: LIPU: M. tuberculosis putative lipase/esterase gene product expressed in E. coli (protein, UniProt O53424 1-297, looked up)
Esterase LipU: MAVRPVLAVGSYLPHAPWPWGVIDQAARVLLPASTTVRAAVSLPNASAQLVRASGVLPADGTRRAVLYLHGGAFLTCGANSHGRLVELLSKFADSPVLVVDYRLIPKHSIGMALDDCHDGYRWLRLLGYEPEQIVLAGDSAGGYLALALAQRLQEVGEEPAALVAISPLLQLAKEHKQAHPNIKTDAMFPARAFDALDALVASAAARNQVDGEPEELYEPLEHITPGLPRTLIHVSGSEVLLHDAQLAAAKLAAAGVPAEVRVWPGQVHDFQVAASMLPEAIRSLRQIGEYIREATG
modifications: expressed in E. coli
B2: LIPV: M. tuberculosis putative lipase/esterase gene product expressed in E. coli (protein, UniProt L0TC47 1-261, looked up)
Lipase LipV: MIIDLHVQRYGPSGPARVLTIHGVTEHGRIWHRLAHHLPEIPIAAPDLLGHGRSPWAAPWTIDANVSALAALLDNQGDGPVVVVGHSFGGAVAMHLAAARPDQVAALVLLDPAVALDGSRVREVVDAMLASPDYLDPAEARAEKATGAWADVDPPVLDAELDEHLVALPNGRYGWRISLPAMVCYWSELARDIVLPPVGTATTLVRAVRASPAYVSDQLLAALDKRLGADFELLDFDCGHMVPQAKPTEVAAVIRSRLGPR
B3: LIPY: M. tuberculosis long-chain TG hydrolase, HSL family lipase, expressed His-tagged in E. coli (protein, listed as Mycobacterium tuberculosis)
chain: EYVVAIHGGAFILPPSIFHWLNYSVTAYQTGATVQVPIYPLVQEGGTAGTVVPAMAGLSNVSVVGDSAGGNLALAAAQYMVSQGNPVPSSMVLLSPWLDVGTWQISQAWAGNLAVNLPPTYVYSGSLDPLAQQAVVLEHTAVVQGAPFSFVLAPWQIHDWILLTPWGLLSWPQINQQL
modifications: His6 tag
notes: M. tuberculosis long-chain TG hydrolase, HSL family lipase, expressed His-tagged in E. coli

Assays:
[1] = format: biochemical, M. tuberculosis; conditions: pH 8

Molecule | TG hydrolase activity [1] | Rate of [14C]diolein hydrolysis (20 mM diolein emulsion) | Storage stability (60 days at 4° C. and 4 cycles of freezing at −20° C. followed by thawing) | Temperature stability of lipase activity (held at 50° C. or higher for 15 min prior to assay) | Fatty acid release from other substrates (phosphatidylcholine, phosphatidyl ethanolamine or hexadecyl palmitate, data not shown) | Km (read-out: apparent Km, triolein, double-reciprocal plot) | Vmax (triolein, double-reciprocal plot)
B1 | 0 nmol/mg/min |  |  |  |  |  | 
B2 | 0 nmol/mg/min |  |  |  |  |  | 
B3 | 48.6 nmol/mg/min | 316.8 ± 9.0 nmol/mg/min | retained nearly all of its original activity | dropped off sharply | did not show any fatty acid release | 7.57 mM | 653.3 nmol/mg/min

From patent US7601357B2 (priority 2005, dated 2009)
